± gives the uncertainty stated by the source.
B1: Zinc finger homeobox protein 3, residues 2147 to 2202; numbered along this chain, Q15911 (parent)
chain: RPRTRITDDQLRVLRQYFDINNSPSEEQIKEMADKSGLPQKVIKHWFRNTLFKERQ

Variants of: B1
Assay: abundance fitness (aPCA) (normalised: wild type 0, dead -1); higher = more abundant; growth selection in yeast, the domain comes from the species named
Details: Homo sapiens

Variant	abundance fitness
S25P	-0.191 ± 0.099
S25M	-0.523 ± 0.098
S25A	-0.14 ± 0.071
S25E	-0.111 ± 0.089
S25H	-0.537 ± 0.23
S25V	-0.356 ± 0.078
S25W	-0.901 ± 0.1
S25I	-0.361 ± 0.15
S25N	-0.196 ± 0.13
S25F	-0.623 ± 0.15
S25G	0.024 ± 0.069
S25K	-0.045 ± 0.1
S25D	-0.225 ± 0.16
S25Y	-0.382 ± 0.14
S25C	-0.244 ± 0.12
S25Q	-0.223 ± 0.098
S25R	-0.202 ± 0.071
S25T	0.012 ± 0.097
S23G	-0.268 ± 0.066
S23R	-0.085 ± 0.073
S23E	-0.123 ± 0.093
S23L	-0.149 ± 0.087
S23N	-0.14 ± 0.26
S23P	-0.21 ± 0.15

Variant	abundance fitness
S23I	-0.501 ± 0.23
S23A	-0.033 ± 0.08
S23F	-0.025 ± 0.15
S23Q	0.004 ± 0.12
S23T	0.102 ± 0.11
S23K	-0.07 ± 0.12
S23V	-0.216 ± 0.072
S23H	0.055 ± 0.28
S23C	0.081 ± 0.16
S23D	0.076 ± 0.14
S23Y	-0.255 ± 0.2
S23W	-0.243 ± 0.09
S23M	-0.035 ± 0.13
E27T	-0.011 ± 0.089
E27D	0.075 ± 0.1
E27L	-0.102 ± 0.072
E27H	-0.147 ± 0.13
E27Q	0.034 ± 0.092
E27W	-0.341 ± 0.079
E27A	0.027 ± 0.072
E27V	0.013 ± 0.074
E27P	-0.078 ± 0.09
E27I	-0.05 ± 0.13
E27G	-0.071 ± 0.065

Variant	abundance fitness
E27R	-0.046 ± 0.062
E27S	0.024 ± 0.077
E27Y	-0.08 ± 0.13
E27M	-0.039 ± 0.097
E27K	0.124 ± 0.11
E27C	-0.019 ± 0.094
S36E	-0.14 ± 0.11
S36P	-0.853 ± 0.1
S36Y	-0.178 ± 0.12
S36C	-0.156 ± 0.1
S36A	0.045 ± 0.086
S36M	-0.157 ± 0.093
S36H	-0.057 ± 0.12
S36V	-0.031 ± 0.085
S36G	-0.449 ± 0.08
S36T	0.127 ± 0.079
S36W	-0.182 ± 0.084
S36F	-0.099 ± 0.1
S36R	-0.828 ± 0.077
S36N	0.018 ± 0.15
S36I	0.078 ± 0.12
S36L	0.019 ± 0.073
S36D	-0.669 ± 0.16
S36K	-0.706 ± 0.12

Variant	abundance fitness
K41P	-0.259 ± 0.12
K41N	-0.053 ± 0.16
K41D	-0.054 ± 0.19
K41L	-0.004 ± 0.094
K41F	-0.274 ± 0.25
K41G	0.108 ± 0.079
K41C	0.126 ± 0.14
K41M	-0.011 ± 0.13
K41E	0.01 ± 0.11
K41A	-0.056 ± 0.12
K41I	-0.022 ± 0.2
K41R	-0.142 ± 0.083
K41Q	0.095 ± 0.15
G37Q	-0.245 ± 0.1
G37E	-0.155 ± 0.11
G37I	-0.762 ± 0.26
G37N	-0.124 ± 0.16
G37Y	-0.424 ± 0.15
G37F	-0.504 ± 0.15
G37S	-0.151 ± 0.087
G37L	-0.278 ± 0.088
G37V	-0.427 ± 0.082
G37K	-0.048 ± 0.11
G37A	-0.176 ± 0.11

Variant	abundance fitness
G37R	-0.071 ± 0.077
G37T	-0.342 ± 0.11
G37C	-0.037 ± 0.13
G37W	-0.535 ± 0.1
G37D	-0.103 ± 0.1
G37H	-0.361 ± 0.16
G37M	-0.341 ± 0.12
K35L	-0.163 ± 0.08
K35P	-0.998 ± 0.14
K35E	-0.168 ± 0.11
K35D	-0.297 ± 0.13
K35R	-0.175 ± 0.075
K35W	-0.346 ± 0.092
K35G	-0.402 ± 0.084
K35F	-0.336 ± 0.14
K35T	-0.189 ± 0.091
K35M	-0.216 ± 0.11
K35A	-0.279 ± 0.097
K35I	-0.329 ± 0.14
K35C	-0.382 ± 0.12
K35Y	-0.357 ± 0.12
K35N	-0.138 ± 0.14
K35Q	0.014 ± 0.14
K35S	-0.222 ± 0.08

Variant	abundance fitness
K35H	-0.536 ± 0.15
A33L	-0.511 ± 0.15
A33H	0.254 ± 0.4
A33W	-0.556 ± 0.16
A33D	-0.879 ± 0.33
A33P	-0.908 ± 0.24
A33V	-0.186 ± 0.15
A33S	-0.054 ± 0.14
A33C	-0.158 ± 0.16
A33G	-0.212 ± 0.12
A33Y	-0.299 ± 0.25
A33R	-0.163 ± 0.096
A33E	0.038 ± 0.18
A33N	-0.21 ± 0.25
A33K	-0.357 ± 0.2
A33M	-0.083 ± 0.25
A33Q	-0.185 ± 0.22
Q40R	0.022 ± 0.071
Q40T	0.054 ± 0.099
Q40V	-0.046 ± 0.084
Q40S	0.014 ± 0.091
Q40N	0.102 ± 0.31
Q40H	0.025 ± 0.18
Q40K	0.193 ± 0.12

Variant	abundance fitness
Q40E	0.105 ± 0.13
Q40F	-0.172 ± 0.23
Q40C	-0.118 ± 0.11
Q40L	0.072 ± 0.083
Q40D	-0.06 ± 0.19
Q40G	-0.073 ± 0.074
Q40M	-0.103 ± 0.11
Q40P	0.121 ± 0.1
Q40I	-0.162 ± 0.15
Q40W	-0.068 ± 0.092
Q40Y	0.088 ± 0.32
N22V	-0.022 ± 0.071
N22Y	-0.076 ± 0.14
N22S	0.001 ± 0.086
N22W	-0.19 ± 0.083
N22T	0.079 ± 0.089
L38S	-0.712 ± 0.095
L38V	-0.008 ± 0.08
L38R	-0.971 ± 0.077
L38H	-1.1 ± 0.38
L38Q	-0.649 ± 0.13
L38I	-0.124 ± 0.22
L38K	-1.04 ± 0.15
L38E	-0.706 ± 0.11

Variant	abundance fitness
L38C	-0.143 ± 0.14
L38M	-0.302 ± 0.11
L38N	-1.15 ± 0.28
L38F	-0.762 ± 0.18
L38P	-0.858 ± 0.13
L38D	-1.02 ± 0.18
L38Y	-1.05 ± 0.33
L38T	-0.449 ± 0.12
L38G	-0.857 ± 0.075
I29C	-0.279 ± 0.14
I29K	-0.634 ± 0.13
I29L	0.09 ± 0.079
I29E	-0.334 ± 0.095
I29R	-0.507 ± 0.073
I29S	-0.491 ± 0.093
I29T	-0.109 ± 0.12
I29D	-1.17 ± 0.26
I29A	-0.476 ± 0.078
I29P	-0.838 ± 0.17
I29H	-0.282 ± 0.19
I29Y	-0.189 ± 0.25
I29G	-0.827 ± 0.082
I29N	-0.44 ± 0.13
I29M	-0.008 ± 0.1

Variant	abundance fitness
I29W	-0.387 ± 0.1
I29Q	-0.225 ± 0.12
E26V	-0.082 ± 0.071
E26R	-0.093 ± 0.064
E26Y	0.004 ± 0.13
E26H	-0.001 ± 0.11
E26G	-0.192 ± 0.066
E26D	0.063 ± 0.097
E26A	-0.043 ± 0.073
E26C	0.024 ± 0.091
E26P	0.031 ± 0.09
E26F	-0.071 ± 0.13
E26Q	0.171 ± 0.098
E26M	-0.133 ± 0.11
E26K	-0.016 ± 0.098
E26N	-0.082 ± 0.15
E26I	0.086 ± 0.12
E26T	-0.057 ± 0.091
E26L	-0.089 ± 0.073
E26W	-0.265 ± 0.084
P24N	-0.873 ± 0.18
P24M	-0.5 ± 0.12
P24F	-0.746 ± 0.15
P24A	-0.606 ± 0.082

Variant	abundance fitness
P24Y	-0.519 ± 0.13
P24Q	-0.747 ± 0.11
P24I	-0.652 ± 0.16
P24S	-1 ± 0.095
P24C	-0.534 ± 0.098
P24E	-0.673 ± 0.11
P24T	-0.585 ± 0.1
P24D	-0.8 ± 0.11
P24G	-0.685 ± 0.074
P24L	-0.315 ± 0.076
P24W	-0.485 ± 0.088
P24R	-0.716 ± 0.071
P24H	-0.566 ± 0.14
P24V	-0.413 ± 0.072
P39Y	-0.284 ± 0.34
P39C	-0.192 ± 0.15
P39Q	-0.167 ± 0.11
P39M	-0.258 ± 0.097
P39L	-0.329 ± 0.078
P39F	-0.746 ± 0.22
P39D	-0.015 ± 0.14
P39T	-0.031 ± 0.099
P39E	0.009 ± 0.082
P39A	-0.068 ± 0.078

Variant	abundance fitness
P39S	0.045 ± 0.08
P39V	-0.119 ± 0.079
P39G	-0.016 ± 0.068
P39H	-0.079 ± 0.18
P39N	-0.249 ± 0.22
P39I	-0.199 ± 0.16
P39R	-0.156 ± 0.082
P39W	-0.564 ± 0.1
M32C	-0.407 ± 0.12
M32N	-1.08 ± 0.29
M32A	-0.338 ± 0.097
M32P	-1.15 ± 0.2
M32I	-0.191 ± 0.21
M32F	-0.383 ± 0.23
M32E	-0.987 ± 0.13
M32S	-0.882 ± 0.12
M32K	-1.03 ± 0.16
M32T	-0.584 ± 0.14
M32L	-0.181 ± 0.083
M32V	-0.164 ± 0.092
M32D	-0.466 ± 0.19
M32Y	-0.317 ± 0.15
M32R	-1.18 ± 0.089
M32Q	-0.774 ± 0.12

Variant	abundance fitness
E31Q	-0.507 ± 0.16
E31R	-0.282 ± 0.076
E31H	-0.168 ± 0.16
E31F	-0.375 ± 0.14
E31A	-0.151 ± 0.085
E31L	-0.259 ± 0.09
E31I	-0.252 ± 0.17
E31V	-0.079 ± 0.083
E31N	-0.399 ± 0.17
E31T	-0.011 ± 0.11
E31M	-0.133 ± 0.16
E31S	-0.196 ± 0.091
E31G	-0.316 ± 0.074
E31K	-0.017 ± 0.16
E31W	-0.404 ± 0.11
E31C	-0.213 ± 0.11
E31Y	-0.448 ± 0.15
E31D	0.047 ± 0.12
E31P	-1.03 ± 0.15
K30G	-0.188 ± 0.069
K30F	-0.264 ± 0.16
K30I	-0.133 ± 0.15
K30W	-0.537 ± 0.099
K30H	-0.161 ± 0.14

Variant	abundance fitness
K30C	-0.217 ± 0.12
K30Q	-0.323 ± 0.11
K30A	-0.006 ± 0.081
K30T	-0.061 ± 0.1
K30N	-0.637 ± 0.2
K30M	-0.107 ± 0.11
K30D	-0.155 ± 0.11
K30P	-0.679 ± 0.14
K30L	-0.239 ± 0.088
K30R	-0.193 ± 0.072
K30S	-0.205 ± 0.092
Q28F	-0.562 ± 0.15
Q28D	-0.278 ± 0.14
Q28N	-0.171 ± 0.14
Q28L	-0.205 ± 0.075
Q28M	-0.168 ± 0.1
Q28I	-0.033 ± 0.13
Q28A	-0.042 ± 0.081
Q28R	-0.221 ± 0.065
Q28E	-0.102 ± 0.096
Q28C	-0.423 ± 0.089
Q28G	-0.209 ± 0.066
Q28V	-0.064 ± 0.076
Q28K	-0.327 ± 0.12

Variant	abundance fitness
Q28Y	-0.385 ± 0.13
Q28W	-0.642 ± 0.086
Q28H	-0.058 ± 0.13
D34A	0.071 ± 0.084
D34I	-0.088 ± 0.19
D34P	-0.582 ± 0.11
D34L	-0.123 ± 0.081
D34S	-0.002 ± 0.078
D34W	-0.318 ± 0.093
D34F	0.013 ± 0.18
D34T	0.053 ± 0.11
D34H	0.061 ± 0.19
D34Q	-0.112 ± 0.12
D34K	0.02 ± 0.13
D34G	-0.011 ± 0.07
D34M	-0.097 ± 0.11
D34N	0.082 ± 0.15
D34C	-0.039 ± 0.1
D34R	-0.086 ± 0.068
D34V	-0.063 ± 0.074
D34Y	-0.253 ± 0.12
D34E	0.207 ± 0.1
